Source: the supplement of paper PMC9170038

System: MS2 coat protein
Assay: apparent KD of MS2 coat protein; higher = weaker reporter binding
Conditions: Eterna round: R107
Method in brief: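 Illumina sequencing clusters were used for on-chip transcription of designed RNA switches. Titration with SNAP-549-labelled MS2 coat protein followed, in twofold steps from 0.7 or 1.5 nM to 3 µM in 100 mM Tris-HCl pH 7.5, 80 mM KCl, 4 mM MgCl2, without or with constant ligand. Apparent KD is each design's median of fits to normalised cluster binding curves.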

[1] = input ligand: theophylline 20 uM
[2] = input ligand: theophylline 2 mM
[3] = input ligand: tryptophan 2.4 mM

Sequence	apparent KD of MS2 coat protein (input ligand: arginine 13.2 mM) [nM]	apparent KD of MS2 coat protein (input ligand: none) [nM]	apparent KD of MS2 coat protein [1] [nM]	apparent KD of MS2 coat protein [2] [nM]	apparent KD of MS2 coat protein [3] [nM]
ACGUCCGGAUUACUCGUGGGCAUGGUCGAUACCAGUAUUUUAAUCUACCCUUGGCAGCGACAUGAGGAUCACCCAUGUGCGAUGA [XTheo A #20]	21.5	20.5	41.6	41.3	21.8
AGCGCGGUGAUGGUAGCCGGACGCUAGGUACGAGGACCGGUACGGCCGCCACUCGGAGUCCUACGACAUGAGGAUCACCCAUGUA [Same State Trp A GF16]	61.2		106	111	
UGGCAAGAGGGAAGGAGCGUCAGCAGAGUCACAUGAGGAUCACCCAUGUAGCACGUGGUGUGACAGGUAGGUCGCCCUCUGCCGU [SS-ArgB12]	24.3	15.1	30.7	21.8	22.1
UGGCAAGAGGGAAGGAGCGUCAGCUGAGUCACAUGAGGAUCACCCAUGUAGCACAUGGUGUGACAGGUAGGUCGCCCUCUGCCGU [SS-ArgB11]	34.4	21.5	36.6	28.8	23.7
AGUAGACACGCGGCCGCCACUUGAGGAUCACCCAAGUGGUGUGUACUUGAAACAAGUGCACAAUCAAGGACCGGGCGUGUCUACA [Omei Tryp B SS D v4]	5.02	7.02	8.77	7.77	13
ACUUCGCAUAGGAAAACUAUGUGAAGAAAUCGAGGACCGGUACGGCCGCCACUCGUCCUCAACAUGAGGAUCACCCAUGUAAUAA [Mat - Exclusion - Trytophan A - D5]	21		24.3	23.9	
UUUUAAAGCAUGGCGUAUCGGAAAACCGAUACCAGUACAGAAAUGUACCCUUGGCAGCGGCAUUUUACAUGAGGAUCACCCAUGU [Ex Theophylline A 2]	16		18.4		14.5
GGACUAACCAGAAGGAGCGGCACGCAGAAACUGCAAUUUCCUCCACACGAGGAUCACCCGUGUCAGGUAGGUCGCUGGUUAGUCG [ArgBX 29]	26.4	22.7	21.8	23.8	22.6
ACGCCCAGGUAGGCUUAAUGGGAUAUGGAAGGAGCGCUGAUGCAAGCAGGUAGGUCGCCAACGGACAUGAGGAUCACCCAUGUAC [Same State - Arginine A (Freestyle 3)]	15.3	20.9	22.3	23.8	19.5
UCGCUCUGGGUGAAAUCCGGAGAUGUGGAAGGAGCGCUCGAAAGAGCAGGUAGGUCGCCAACGGACAUGAGGAUCACCCAUGUAC [Same State - Arginine A (Freestyle 20)]	31	29.6	50	75.3	38.3
AGCCGGAUUACGGCCGCCACUGUAGACGUGACGAAAGUCGCGUCAACAUGAGGAUCACCCAUGUACAGGACCGGGUGGUCCGGCA [Omei Trp B SS A v3]	7.09	9.61	11.2	8.87	8.97
AACAUGAGGAUCACCCAUGUCCCAUGUGAACGAGGACCGGUACGGCCGCCACUCGAAUGAGGCGGCACAUGAGGAUCACCCACAU [whbob_SS_trypto A_2s11]	95.7		233	237	
CGGCCCUCAGAUGAGGAUCACCCAUCUGAUACCAGCCUGGAAACAGGCCCUUGGCAGCAGAAGGUCAUCAAAGAUGACCAAGCCG [TheoAX 30 #OpenEnded #AlternativeMS2]	10	11.8	19.4	89.1	12
UCGCUCGCCGGAAGGCGAGCGAGUUGCGAUACCAGCCCGGAAACGGGCCCUUGGCAGCGCACAUGAGGAUCACCCAUGUCAUGUU [#1 Exclusion - Theophylline A Attempt #6 (HarryS)]	24.3		27.5		18.3
AUUCAUGGAAACAUGAGAUAUCCUACCGGUCGAGGACCGGUACGGCCGCCACUCGGUUGGUGGCACAUGAGGAUCACCCAUGUUA [SS Tryp A #12]	77.6		310	378	
GGGUGGUAGGCGGCCGCCACUGAUUUUUAUUUAUAGAUGACAUGAGGAUCACCCAUGUUUAUGUGCAGGACCGGGCCUGUUGUGG [aaaR]	12.2	16.1	15.2	15.6	13.9
UAAUCCGGUCCUCGAUAGGUGAUCCUCUAACGAGGACCGGUACGGCCGCCACUCGAUAACAUGAGGAUCACCCAUGUAAUAAUAA [|T'-M'-Trp-Ms2|_Design16]	33		41.9	45.1	

Sequence	apparent KD of MS2 coat protein (input ligand: arginine 13.2 mM) [nM]	apparent KD of MS2 coat protein (input ligand: none) [nM]	apparent KD of MS2 coat protein [1] [nM]	apparent KD of MS2 coat protein [2] [nM]	apparent KD of MS2 coat protein [3] [nM]
UAUGCACAUGAGGAUCACCCAUGUAUGGAAGGAGCGGUGAAUAAACCAGGUAGGUCGCCAUGGUGAGGGUCAUCUAUGUAAUCGU [Exclusion - Arginine A (Freestyle 5)]	51	47.3	78.4	80.3	59.3
GUCCUAAGGUCGGCCGCCACUGUAGAGUGUGAGCCAUCACAUGAGGAUCACCCAUGUUGUUGCUAUAGGACCGGGAUUGUAGGAC [#22 Exclusion Tryptophan B]	13.5		15.5	12.6	
CCUGACAUGAGGAUCACCCAUGUGUGAGCACGAGGACCGGUACGGCCGCCACUCGCGUUGCCGGCCGGACUAUCUGGCGAAGUCA [theeternabot_sameState_MS2_Trp_A_10]	28.3		39.6	41.4	
CGUUAAGAAUCGGCCGCCACUCCAUACGUGUGAAUCGCGGAUCGACAUGAGGAUCACCCAUGUCGGAGGACCGGGAUCCUCUUUC [theeternabot_sameState_MS2_Trp_B_12]	28.2		49.2	48	
GGGUACAUCGCGGCCGCCACUCAUGUAAAUGCGUGAGGAUCACCCAUGCCGAUGGAGACAUCGGAGAGGACCGGGUGAUGUACCG	27.9	38.5	40	52.7	46.7
AAAACACAUGAGGAUCACCCAUGUCAUGAUACCAGUCCACAUGAGGACCCUUGGCAGCAUAAAAUGGGUAACAUGAGGAUAACCC [AstrosEXyTheA#4]	26.5		48.1		23.4
GGGCGUGUGGUGCGGCGUGCUCCGCUCCGUCGAGGACCGGUACGGCCGCCACUCGACAUGAGGAUCACCCAUGUGCGAGCGCGCG [#1 Exclusion - Tryptophan A Attempt #9 (HarryS)]	16.3	9.81	10.5	14.4	24.4
GGAAACCCGACGGCCGCCACUAACGGUCUCAAAAGAGGUUGAACACAUGAGGAUCACCCAUGUAAUAGGACCGGGUCGUGUGAAA [Design 1]	17.9		24.9	19.4	
UCUCGGUCUUUCUUUCUCCGAGAAUAUGAUACCAGUUAGUUUUAUGGCCCUUGGCAGCAUAGAACAUGAGGAUCACCCAUGUGUU [SSThA NP+V+V2 #9 +-Same Structure]	48.1		114		96.5
UCGUGUGUUUCGGAUACCAGUGUGGUCGAUACAUGAGGAUCACCCAUGUGAGAGGAGGUACACCCUUGGCAGCUGGCUGUUGCGG [qqwmullin]	39.7		82		77.5
ACAUCUUGUACGGCCGCCACUAACAGAUUCAGCGUCGGAGCCAACUACAUGAGGAUCACCCAUGUUAGGACCGGGUACUGUCCAC [theeternabot_exclusion_MS2_Trp_B_47]	15.8		20.7	21	
UCUGGGUCCGCAAGGACCUGGAGUUGCGAUACCAGCACGGUAACGUGCCCUUGGCAGCGCACAUGAGGAUCACCCAUGUGGUGUU [#1 Exclusion - Theophylline A Attempt #17 (HarryS)]	86.6		365		204
UACAUGAGGAUCACCCAUGUGUAGAGGGAUACCAGUGACAGUAAGCGCCCUUGGCAGCCCGUGAACAAUGGGUGAGCAAAAUAGU [#17 Exclusion-TheophyllineA]	41.4	19.4	233	25.6	44.7
GGUUGGUGUAGAGAUAUAUUGAUUACUGAAGGAGCGGGAAAUAACCCAGGUAGGUCGCAGAGAUCCACAUGAGGAUCACCCAUGU [!0.K]	30.6	39.7	53	36.9	29.8
AUUCAUGGAAACAUGACAUACAUAACCGGUCGAGGACCGGUACGGCCGCCACUCGUUUGGAGGCACAUGAGGAUCACCCAUGUUA [SS Tryp A #9]	21.7		35.9	28.2	
ACCAGGGUCUGAAGGAGCGCGAUUACAUGAGGAUCACCCAUGUGAAAUGGUAGAUGAUACUCGCAGGUAGGUCGCAGUACUUGGA [Same State Arginine B GF 14]	53.3	107	164	234	215
CUGUUUACAUGAGCCCGUCAUAUAUACGAUACCAGUUAAAGAUGAAACCCUUGGCAGCGUAGGACAUGAGGAUCACCCAUGUGCC [theeternabot_exclusion_MS2_Theo_A_17]	15.6		21.1		18.6
